# Measured values from US20010052137A1, “Axin domain-like polypeptide inhibitors of glycogen synthase kinase 3 beta activity and activators of wnt signaling” (Trustees of the University of Pennsylvania, priority 2000, published 2001).
# T1: carboxyl-terminal fragment of Xenopus frizzled 7 (Xenopus laevis, UniProt Q9PUK8)
# T1 sequence (Q9PUK8 525-549 limits assumed): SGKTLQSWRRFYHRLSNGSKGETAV
# B1: full length Xaxin: full length Xenopus axin, amino acid residues 1-842 (SEQ ID NO: 8) (protein, listed as Xenopus laevis)
# chain: MSVKGKGFPLDLGGSFTEDAPRPPVPGEEGELITTDQRPFSHTYYSLKNDGIKNETSTATPRRPDLDLGYEPEGSASPTPPYLKWAESLHSLLDDQDGIHLFRTFLQQENCADLLDFWFACSGFRKLEPNDSKVEKRLKLAKAIYKKYVLDSNGIVSRQIKPATKSFIKDCVLRQQIDPAMFDQAQMEIQSMMEDNTYPVFLKSDIYLEYTTIGGESPKNYSDQSSGSGTGKGPSGYLPTLNEDEEWRCDQGGEHERERECIPSSLFSQKLALDSSSHCAGSNRRLSDGREFRPGTWREPVNPYYVNTGYAGAPVTSANDSEQQSMSSDADTMSLTDSSVDGIPPYRLRKHYRREMQESANANGRGPLPHIPRTYHMPKDIHVDPEKFAAELISRLEGVLRDREAEQKLEERLKRVRAEEEGDDGDVSSGPSVISHKLPSGPPMHHFNSRYSETGCVGMQIRDAHEENPESILDEHVQRVMKTPGCQSPGTGRHSPKSRSPDGHLSKTLPGSLGTMQTGHGKHSSKSTAKVDSGNLHHHKHVYHHVHHHGGVKPKEQIDGESTQRVQTNFPWNVESHNYATKSRNYAESMGMAPNPMDSLAYSGKVSMLSKRNAKKADLGKSESASHEMPVVPEDSERHQKILQWIMEGEKEIIRHKKSNHSSSSAKKQPPTELARPLSIERPGAVHPWVSAQLRNVVQPSHPFIQDPTMPPNPAPNPLTQLVSKPGARLEEEEKKAAKMPQKQRLKPQKKNVSAPSQPCDNIVVAYYFCGEPIPYRTMVKGRVVTLGQFKELLTKKGNYRYYFKKVSDEFDCGVVFEEVREDDMILPIYEEKIIGQVEKID
# Experiments:
# [1] = system: GSK-3 beta; assay: Co-immunoprecipitation of GSK-3 beta with Myc-tagged Xaxin constructs in Xenopus oocytes; type: binding; conditions: Myc-tagged construct co-expressed with GSK-3 beta in Xenopus oocytes; anti-Myc IP, anti-GSK-3 beta blot
# [2] = system: beta-catenin; assay: beta-catenin protein accumulation in Xenopus oocytes (immunoblot); type: cell-based; conditions: construct mRNA expressed in Xenopus oocytes
# Description: FIG. 2A is an image of an immunoblot of Xenopus cytoplasmic extracts obtained from Xenopus embryos in which beta-catenin was expressed, using an antibody which binds specifically with beta-catenin (described in McCrea et al., 1993, J. Cell. Biol. 123:477-84). The embryo corresponding to lane 2 was incubated in the presence of 20 millimolar LiCI. Extracts corresponding to lanes 3-5, 7, and 8 were obtained from embryos in which full-length (lane 8) Xaxin or the C-term (lane 3), GID1 (“GID”; lanes 4 and 7), or N-term (lane 5) fragments of Xaxin were expressed.
# Although endogenous GSK-3 beta is not present at sufficient levels to detect using the tau assay, inhibition of GSK-3 beta is known to cause stabilization of cytoplasmic beta-catenin (Cadigan et al., 1997, Genes Dev. 11:3286-3305; Miller et al., 1996, Genes Develop. 10:2527-2539), and this serves as a widely used assay for downstream activation of wnt signaling. Inhibition of endogenous GSK-3 beta activity also causes stabilization of beta-catenin in Xenopus embryos and oocytes (Hedgepeth et al., 1997, Develop. Biol. 185:82-91; Yost et al., 1998, Cell 93:1031-1041; Yost et al., 1996, Genes Develop. 10:1443-1454). For this reason, levels of beta-catenin protein were assessed in Xenopus oocytes which had been injected either with full length Xaxin mRNA or with mRNA encoding one of the amino-terminal, GID, or carboxyl-terminal domains of Xaxin.
# [3] = system: LEF-1 dependent transcription (wnt signaling); assay: LEF-luciferase reporter of wnt signaling in 293T cells; type: cell-based; conditions: 293T cells
# Description: LEF-1 (also designated tcf) is a DNA-binding protein that also binds with beta-catenin. The beta-catenin/LEF-1 complex is known to activate transcription of wnt target genes. A genetic construct was made which comprised this LEF-1-binding promoter operably linked with a luciferase gene, for use as a reporter of wnt signaling.
# Single plasmids encoding individual GID fragments were transfected into 293T cells, together with the LEF-luciferase reporter, and luciferase activity was measured after 24 hours. GID fragments induced up to 100- to 250-fold activation of LEF-luciferase (normalized to activity from the mutated LEF-reporter control, which was activated less than 2-fold).
# [4] = system: Xenopus embryos; assay: Dorsal axis duplication / dorsalization in Xenopus embryos after mRNA injection; type: in vivo; conditions: 4 cell embryo
# [5] = target: T2, FL Xaxin (Xenopus laevis, UniProt Q9YGY0); assay: Yeast two hybrid assay, interaction with FL Xaxin; type: binding; conditions: beta-galactosidase filter assay in S. cerevisiae
# T2 construct: expressed in transfected cells; host or cells: Saccharomyces cerevisiae
# Text: (§1) FL Xaxin was cloned in frame with the GAL4 DNA binding domain (BD) in plasmid pAS2-1 (Clontech) to yield BD plasmid. Expression of BD plasmid yielded a Xaxin-GAL4 fusion protein. FL Xaxin, deltaDIX Xaxin, and a fragment (designated “AID”) encoding amino acid residues 489-777 of Xaxin were cloned in frame with the GAL4 transcriptional activation domain (AD) in the vector pACT2 to yield AD plasmids. Yeast were transformed with BD and AD plasmids using previously described protocols (Clontech, Palo Alto, Calif.). Transformed colonies were selected and assayed for beta-galactosidase activity in order to detect interacting proteins. In addition, three Xenopus axin partial length cDNAs (designated Y2H 2, Y2H 6, Y2H 7; all in plasmid pACT2) isolated from a previous yeast two hybrid screen (Hedgepeth et al., 1999, Mech. Develop. 80:147-151) were analyzed. Purification of GID
# (§2) Using the yeast two hybrid assay, the ability of axin to bind with itself, with other members of the wnt pathway, or with the G(alpha)q subunit of heterotrimeric G-proteins, was investigated. […]
# (§3) Saccharomyces cerevisiae cells were transformed with the bait vector and with one of the target vectors. Interaction was assessed using a filter assay to detect beta-galactosidase activity, as described (Fields et al., 1989, Nature 340:245-247; Harper et al., 1993, Cell 75:805-816). […]
# [6] = system: GSK-3 beta; assay: Yeast two hybrid assay, interaction with GSK-3 beta; type: binding; conditions: beta-galactosidase filter assay in S. cerevisiae
# Text: as §1, §2, §3
# [7] = system: disheveled; assay: Yeast two hybrid assay, interaction with disheveled; type: binding; conditions: beta-galactosidase filter assay in S. cerevisiae
# Text: as §1, §2, §3
# [8] = system: carboxyl-terminal fragment of Xenopus frizzled 3; assay: Yeast two hybrid assay, interaction with frizzled 3 fragment; type: binding; conditions: beta-galactosidase filter assay in S. cerevisiae
# Text: as §1, §2, §3
# [9] = target: T1, carboxyl-terminal fragment of Xenopus frizzled 7; assay: Yeast two hybrid assay, interaction with frizzled 7 fragment; type: binding; conditions: beta-galactosidase filter assay in S. cerevisiae
# Text: as §1, §2, §3
# [10] = target: T3, axin (Xenopus laevis, UniProt Q9YGY0); assay: Co-immunoprecipitation of myc-tagged and HA-tagged axin in Xenopus embryos; type: binding
# T3 construct: Full length (FL) Xaxin was assembled into plasmid CS2MT using restriction fragments of partial cDNA clones; expressed in transfected cells; host or cells: Xenopus embryos (fertilized eggs injected with mRNA, harvested at stage 8)
# [11] = system: GSK-3 beta protein lacking amino-terminal or carboxyl-terminal residues; assay: Binding of full length axin to truncated GSK-3 beta; conditions: GSK-3 beta lacking as many as 62 amino-terminal or 132 carboxyl-terminal residues
molecule,measurement,setting,value
B1,binding with GSK-3 beta (co-immunoprecipitation),[1],bound
same,accumulation of beta-catenin,[2],not observed
same,activation of wnt signaling (LEF-1-binding promoter luciferase reporter),[3],not
same,effect on axial development,[4]; mRNA injected or expressed dorsally,caused ventralization
same,secondary / ectopic axis formation,"[4]; mRNA injected or expressed ventrally, scored at tadpole stage",induced formation of ectopic cement glands
same,interaction with FL Xaxin (self-interaction),[5],interacted strongly
same,interaction with GSK-3 beta,[6],interacted strongly
same,interaction with disheveled,[7],did not interact
same,interaction with carboxyl-terminal fragment of Xenopus frizzled 3,[8],did not interact
same,interaction with carboxyl-terminal fragment of Xenopus frizzled 7,[9],did not interact
same,axin self-interaction (co-immunoprecipitation),[10],interacts with itself
same,binding with truncated GSK-3 beta,[11],able to bind
